Assay results: US20210309732A1 (ELIXIRON IMMUNOTHERAPEUTICS HONG KONG, published 2021)

Key:
[1] = target: T1, recombinant human GM-CSF (human, UniProt P04141 18-144); experiment: Biacore
T1 construct: also called rhGM-CSF; CSF2

[2] = target: T1, recombinant human GM-CSF; experiment: Biacore; remark: listed apart in the source
[3] = target: T1, recombinant human GM-CSF; experiment: Gator, Coating Ab
[4] = target: T1, recombinant human GM-CSF; experiment: Gator, Coating Ag
[5] = target: T1, recombinant human GM-CSF; experiment: cell-based or functional assay
[6] = target: T1, recombinant human GM-CSF; experiment: Biacore; remark: listed apart in the source
[7] = target: T1, recombinant human GM-CSF; experiment: cell-based or functional assay; remark: listed apart in the source
[8] = target: T1, recombinant human GM-CSF; experiment: Gator (pro), Coating Ag
[9] = target: T1, recombinant human GM-CSF; experiment: ELISA on coated rhGM-CSF, UBA relative to 1D2
Summary of the method: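 Antibody clones carrying SDR point mutants in VH or VL, each paired with the wild-type chain, were expressed in HEK293 cells. Culture media diluted 1:12000 were bound to plates coated with rhGM-CSF at 1 μg/mL for 1 h at room temperature. Detection used HRP anti-human antibody and Amplex Red fluorescence (Ex530/Em590), with UBA = fluorescence signal/dilution factor.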

[10] = target: T1, recombinant human GM-CSF; experiment: SPR Biacore 3000, antibody captured by goat anti-human IgG, rhGM-CSF injected
Protocol: The kinetic binding analysis of anti-GM-CSF antibodies to recombinant human GM-CSF (rhGM-CSF) was determined by Surface plasmon resonance (SPR) using the Biacore 3000 instrument (GE Healthcare). Goat anti-human IgG (5 μg/mL) (SouthernBiotech) was stabilized in […] acetate buffer, pH 4.5, and immobilized on an EDC/NHS pre-activated carboxymethylated dextran 5 (CMS) sensor chip (GE Healthcare) through amine coupling kit (GE Healthcare). HBS-EP buffer (HBS; 10 […], 0.005% surfactant Tween-20, pH 7.4) (GE Healthcare) was used as running buffer. […] CMS sensor chip coated only with goat anti-human IgG was used as reference chip. rhGM-CSF (Biolegend) was injected over the mAb-coated CMS sensor chip and reference chip at different concentrations. The flow rate was 30 μl/min. […] Injection time and dissociation time were 180 and 600 seconds. Data were fitted to a 1:1 model using the Biacore 3000 evaluation software.

[11] = target: T1, recombinant human GM-CSF; experiment: ELISA, GM-CSF coated on the plate, anti-human kappa light chain-HRP, OD 450 nm
Protocol: (§1) Human and mouse GM-CSF have about 56% homology and are species specific. Rhesus and GM-CSF has 96.5% homologous to human GM-CSF (Hutchinson et al, J Med Virol 2001, 65:561-565, Genbank accession number AY007376). […] ELISA was performed as followed. Briefly, GM-CSF proteins were coated on the ELISA absorbing plates, then blocked by 1% BSA in PBS. […] After incubation, the plates were washed three times with TBST and incubated with anti-human kappa light chain conjugated HRP secondary antibodies. Plates were washed three times, TMB peroxidase substrate was added and reactions were stopped by adding 1 N sulfuric acid.

[12] = target: T2, mouse GM-CSF (mouse, UniProt P01587 18-141); experiment: as above
T2 sequence (looked up): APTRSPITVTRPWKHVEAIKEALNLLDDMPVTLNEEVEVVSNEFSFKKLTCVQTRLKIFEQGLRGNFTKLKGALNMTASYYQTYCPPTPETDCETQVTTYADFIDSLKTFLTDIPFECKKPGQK
Protocol: as §1

[13] = target: T3, rhesus GM-CSF (rhesus, UniProt Q9GL44 18-144); experiment: as above
T3 sequence (Q9GL44 entry or part of it limits assumed): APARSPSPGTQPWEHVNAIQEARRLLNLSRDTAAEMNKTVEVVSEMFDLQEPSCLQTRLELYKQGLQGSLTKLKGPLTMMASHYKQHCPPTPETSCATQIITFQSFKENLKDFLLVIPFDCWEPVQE
Protocol: as §1

[14] = target: T1, recombinant human GM-CSF; experiment: ELISA, human GM-CSF coated on the plate, anti-human kappa light chain-HRP, OD 450 nm
Protocol: as §1

[15] = target: T3, rhesus GM-CSF; experiment: ELISA, rhesus GM-CSF coated on the plate, anti-human kappa light chain-HRP, OD 450 nm
Protocol: as §1

T1 sequence (P04141 18-144 limits assumed): as the sequence (Q9GL44 entry or part of it limits assumed) above, with G9S, K38E, V43I, S53T, Q67R, Q104E counted along it

B1: antibody 1D2 (antibody, V domains shown)
VH: QVQLVQSGAEVKKPGASVKVSCEASGYTFTDKYLHWVRQAPGQGLEWMAWINPKSGGTFYAQNFKGRVTVTRDTSINTAYLELTSLRLDDTSTYYCARGRDYYDQGAADLWGQGTMVTVSS
VL: DIQLTQSPSSLSASVGDRVTITCRASQGINSVLAWYQQKPGKAPKLLLYAASKLESGVPSRFSGSGSGTDYTLTISSLQPEDFGTYYCQQYYSPVRTFGQGTKVEIKR
notes: also called 1D2-WT; WT
**Q.** For B1, which Ka [1] is on record?
**A.** 1.01e+10 M⁻¹

**Q.** And the Kd [1]?
**A.** 0.099 nM

**Q.** What about the koff [1] of the same binder?
**A.** 0.000173 s⁻¹

**Q.** What about the kon [1] of the same binder?
**A.** 1.75e+06 M⁻¹ s⁻¹

**Q.** What about the Kd [2] of the same binder?
**A.** 0.162 nM

**Q.** What about the Kd [3] of the same binder?
**A.** 0.177 nM

**Q.** And the Kd [4]?
**A.** 0.0176 nM

**Q.** And the “IC50, inhibition of GM-CSF induced TF-1 cell proliferation” value [5]?
**A.** 0.0631 nM

**Q.** What about the “IC50, inhibition of rhGM-CSF induced CCL17 secretion from PBMCs” value [5] of the same binder?
**A.** 0.0714 nM

**Q.** And the “IC50, inhibition of rhGM-CSF induced CCL17 secretion in human PBMCs” value [5]?
**A.** 0.159 nM

**Q.** And the “IC50, inhibition of rhGM-CSF induced IL-8 secretion in U937 cells” value [5]?
**A.** 0.0594 nM

**Q.** What about the Kd [6] of the same binder?
**A.** 0.099 nM

**Q.** What about the koff [6] of the same binder?
**A.** 0.000173 s⁻¹

**Q.** And the kon [6]?
**A.** 1.75e+06 M⁻¹ s⁻¹

**Q.** What about the “IC50 (M), inhibition of GM-CSF induced TF-1 cell proliferation (FIG. 5A)” value [7] of the same binder?
**A.** 1.71e-10 M

**Q.** What about the “IC50 (M), inhibition of GM-CSF induced TF-1 cell proliferation (FIG. 5B)” value [7] of the same binder?
**A.** 2.28e-10 M

**Q.** And the Kd [8]?
**A.** 0.00157 nM

**Q.** And the “binding affinity % of 1D2” value [9]?
**A.** 100%

**Q.** And the Kd [10]?
**A.** 0.0643 nM

**Q.** And the koff [10]?
**A.** 7.48e-05 s⁻¹

**Q.** What about the kon [10] of the same binder?
**A.** ~1.16e+06 M⁻¹ s⁻¹

**Q.** What about the “EC50 (read off the curve)” value [11] of the same binder?
**A.** ~0.08 nM

**Q.** Does B1 bind [12]?
**A.** no binding (tested: about 4e-8 M)

**Q.** What about the “EC50 (read off the curve)” value [13] of the same binder?
**A.** ~0.06 nM

**Q.** What about the “EC50 (read off the curve)” value [14] of the same binder?
**A.** ~0.4 nM

**Q.** What about the “EC50 (read off the curve)” value [15] of the same binder?
**A.** ~0.5 nM
